Biological target: Tau seeds: brain fraction from transgenic mice expressing human Tau P301S (human), P10636
Assay: cell-based or functional assay

Tau seeds: brain fraction from transgenic mice expressing human Tau P301S (human), P10636, sequence (P10636 other isoform, or with tags, fused parts or gaps P301S P301S): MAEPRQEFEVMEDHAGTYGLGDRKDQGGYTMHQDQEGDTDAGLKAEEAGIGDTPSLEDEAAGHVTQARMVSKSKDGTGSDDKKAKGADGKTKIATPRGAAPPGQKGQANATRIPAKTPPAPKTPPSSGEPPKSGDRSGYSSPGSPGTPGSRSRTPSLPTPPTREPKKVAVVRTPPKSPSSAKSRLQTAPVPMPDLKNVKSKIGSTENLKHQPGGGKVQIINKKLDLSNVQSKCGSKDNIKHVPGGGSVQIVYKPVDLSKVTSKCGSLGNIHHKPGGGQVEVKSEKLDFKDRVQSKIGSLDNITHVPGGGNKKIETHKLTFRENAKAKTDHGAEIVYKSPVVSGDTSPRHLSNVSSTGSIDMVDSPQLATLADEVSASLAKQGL

- IC50, cellular Tau aggregation assay: 8 nM
- Imax (maximal efficacy at 300 nM), cellular Tau aggregation assay: 62%
B1: AB1 having a murinised VL of SEQ ID NO: 9 and a murinised VH of SEQ ID NO.: 10 (antibody, V domains shown)
VL: DVVMTQSPASLAVSLGQRATISCQASQSVSSYLAWYQQKPGQPPKLLIYAASYLASGVPSRFKGSGSGTEFTLNIHPVEEEDAATYYCQQGYTRTDIDNTFGGGTKLEIK
VH: QVQLKESGPGLVAPSQSLSITCTVSGIDLSTWRMNWVRQPPGKGLEWIGIIGTGGRTYYANWAKGRFSISKDSTQVFLKMNSLQTEDTATYFCARLGANNNGYPLDLWGAGTTVTVSS

— patent US20210139574A1
